The record followed here is publication PMC6941992, “Polar recruitment of RLD by LAZY1-like protein during gravity signaling in root branch angle control” (Nature Communications, 2020).

In this assay the target is T1, RLD2 BRX domain (residues 1006-1066) (Arabidopsis thaliana, UniProt F4K0X5 1006-1066).
T1 construct: HRV3C cleavage may leave vector residues at the N-terminus (surmised); source: E. coli BL21Star (DE3), purified (His-tag resin, HRV3C cleavage, gel filtration); for crystals co-expressed with LZY3 (274-287); not shown: His6, N-terminal, cleaved
T1 sequence (looked up): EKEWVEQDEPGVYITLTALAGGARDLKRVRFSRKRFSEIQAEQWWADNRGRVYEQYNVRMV
Description: ITC; iTC200, 20 °C; 20 mM Tris-HCl pH 8.0, 150 mM NaCl; 200 μM LZY3 (274-287) injected into 20 μM RLD2 BRX domain; 1:1 binding model. The conditions noted are these: both partners purified.

B1: LZY3 CCL peptide (residues 274-287) (peptide, UniProt Q5XVG3 274-287, looked up)
chain: KWVKTDSDFIVLEI
notes: LZY3 (LAZY1-LIKE 3), Arabidopsis thaliana, residues 274-287 (CCL domain); HRV3C cleavage may leave vector residues at the N-terminus (surmised); also called CCL β-hairpin; source: E. coli BL21Star (DE3), purified (glutathione sepharose, HRV3C cleavage, gel filtration, reverse phase); for crystals co-expressed with RLD2; not shown: GST, N-terminal, cleaved
B1: the Kd stood at 9.7 ± 2.2 nM, the dH is -11.3 ± 0.09 kcal/mol and the “stoichiometry N” value was 0.73 ± 0.002.
